Data published in PMC7719173.

Molecular target: human TRAPPII complex (TRAPPC1, TRAPPC2, TRAPPC2L, TRAPPC3, TRAPPC4, TRAPPC5, TRAPPC6A, TRAPPC9, TRAPPC10) (human) (UniProt Q9Y5R8)

Question: For “Rab11 (from UniProt P62491 1-216) (natural protein)”, which catalytic efficiency (kcat/Km) of TRAPPII-catalysed release of Mant-GDP from 4 µM Rab-His6 in solution, TRAPPII 19–300 nM is on record?
Answer: The catalytic efficiency (kcat/Km) of TRAPPII-catalysed release of Mant-GDP from 4 µM Rab-His6 in solution, TRAPPII 19–300 nM was 2900 M⁻¹ s⁻¹.
